The text below walks through data of article PMC6143168 (Nature genetics, 2018).

The test has as its target T1, EsxW wildtype (2Thr) (Mycobacterium tuberculosis H37Rv, UniProt P9WNI3 1-98).
T1 sequence: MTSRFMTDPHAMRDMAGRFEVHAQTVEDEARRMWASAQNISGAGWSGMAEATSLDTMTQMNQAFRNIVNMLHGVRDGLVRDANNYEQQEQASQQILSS
In words: MST.

B1: EsxV (natural protein)
chain: MTINYQFGDVDAHGAMIRAQAGSLEAEHQAIISDVLTASDFWGGAGSAACQGFITQLGRNFQVIYEQANAHGQKVQAAGNNMAQTDSAVGSSWA
A word on the Kd: it is the equilibrium constant for the complex coming apart. As for B1, the Kd is 600 nM. In other words, the sub-micromolar range.
